Assay results from PMC9770967, “Native holdup (nHU) to measure binding affinities from cell extracts” (Science Advances, 2022).

B1: PTPRCAP: Protein tyrosine phosphatase receptor type C-associated protein (protein, UniProt Q14761 1-206, looked up)
Protein tyrosine phosphatase …: MALPCTLGLGMLLALPGALGSGGSAEDSVGSSSVTVVLLLLLLLLLATGLALAWRRLSRDSGGYYHPARLGAALWGRTRRLLWASPPGRWLQARAELGSTDNDLERQEDEQDTDYDHVADGGLQADPGEGEQQCGEASSPEQVPVRAEEARDSDTEGDLVLGSPGPASAGGSAEALLSDLHAFAGSAAWDDSARAAGGQGLHVTAL
B2: ARHGEF6: Rho guanine nucleotide exchange factor 6 (protein, UniProt Q15052 1-776, looked up)
Rho guanine nucleotide …: MNPEEQIVTWLISLGVLESPKKTICDPEEFLKSSLKNGVVLCKLINRLMPGSVEKFCLDPQTEADCINNINDFLKGCATLQVEIFDPDDLYSGVNFSKVLSTLLAVNKATEDQLSERPCGRSSSLSAANTSQTNPQGAVSSTVSGLQRQSKTVEMTENGSHQLIVKARFNFKQTNEDELSVCKGDIIYVTRVEEGGWWEGTLNGRTGWFPSNYVREIKSSERPLSPKAVKGFETAPLTKNYYTVVLQNILDTEKEYAKELQSLLVTYLRPLQSNNNLSTVEVTSLLGNFEEVCTFQQTLCQALEECSKFPENQHKVGGCLLSLMPHFKSMYLAYCANHPSAVNVLTQHSDELEQFMENQGASSPGILILTTNLSKPFMRLEKYVTLLQELERHMEDTHPDHQDILKAIVAFKTLMGQCQDLRKRKQLELQILSEPIQAWEGEDIKNLGNVIFMSQVMVQYGACEEKEERYLMLFSNVLIMLSASPRMSGFIYQGKIPIAGTVVTRLDEIEGNDCTFEITGNTVERIVVHCNNNQDFQEWLEQLNRLIRGPASCSSLSKTSSSSCSAHSSFSSTGQPRGPLEPPQIIKPWSLSCLRPAPPLRPSAALGYKERMSYILKESSKSPKTMKKFLHKRKTERKPSEEEYVIRKSTAALEEDAQILKVIEAYCTSANFQQGHGSSTRKDSIPQVLLPEEEKLIIEETRSNGQTIMEEKSLVDTVYALKDEVRELKQENKRMKQCLEEELKSRRDLEKLVRRLLKQTDECIRGESSSKTSILP
B3: Microtubule-associated protein 4: full-length endogenous prey, gene MAP4 (protein, UniProt P27816 1-1152, looked up)
chain: MADLSLADALTEPSPDIEGEIKRDFIATLEAEAFDDVVGETVGKTDYIPLLDVDEKTGNSESKKKPCSETSQIEDTPSSKPTLLANGGHGVEGSDTTGSPTEFLEEKMAYQEYPNSQNWPEDTNFCFQPEQVVDPIQTDPFKMYHDDDLADLVFPSSATADTSIFAGQNDPLKDSYGMSPCNTAVVPQGWSVEALNSPHSESFVSPEAVAEPPQPTAVPLELAKEIEMASEERPPAQALEIMMGLKTTDMAPSKETEMALAKDMALATKTEVALAKDMESPTKLDVTLAKDMQPSMESDMALVKDMELPTEKEVALVKDVRWPTETDVSSAKNVVLPTETEVAPAKDVTLLKETERASPIKMDLAPSKDMGPPKENKKETERASPIKMDLAPSKDMGPPKENKIVPAKDLVLLSEIEVAQANDIISSTEISSAEKVALSSETEVALARDMTLPPETNVILTKDKALPLEAEVAPVKDMAQLPETEIAPAKDVAPSTVKEVGLLKDMSPLSETEMALGKDVTPPPETEVVLIKNVCLPPEMEVALTEDQVPALKTEAPLAKDGVLTLANNVTPAKDVPPLSETEATPVPIKDMEIAQTQKGISEDSHLESLQDVGQSAAPTFMISPETVTGTGKKCSLPAEEDSVLEKLGERKPCNSQPSELSSETSGIARPEEGRPVVSGTGNDITTPPNKELPPSPEKKTKPLATTQPAKTSTSKAKTQPTSLPKQPAPTTIGGLNKKPMSLASGLVPAAPPKRPAVASARPSILPSKDVKPKPIADAKAPEKRASPSKPASAPASRSGSKSTQTVAKTTTAAAVASTGPSSRSPSTLLPKKPTAIKTEGKPAEVKKMTAKSVPADLSRPKSTSTSSMKKTTTLSGTAPAAGVVPSRVKATPMPSRPSTTPFIDKKPTSAKPSSTTPRLSRLATNTSAPDLKNVRSKVGSTENIKHQPGGGRAKVEKKTEAAATTRKPESNAVTKTAGPIASAQKQPAGKVQIVSKKVSYSHIQSKCGSKDNIKHVPGGGNVQIQNKKVDISKVSSKCGSKANIKHKPGGGDVKIESQKLNFKEKAQAKVGSLDNVGHLPAGGAVKTEGGGSEAPLCPGPPAGEEPAISEAAPEAGAPTSASGLNGHPTLSGGGDQREAQTLDSQIQETSI
modifications: full-length
notes: full-length endogenous prey, gene MAP4

What follows are molecules tested on SNX27_PDZ (assay: nHU-MS, SNX27_PDZ bait, total Jurkat extracts, series 1). Settings: Jurkat, series 1; n = 6.
Type: binding, human
Procedure: The empty His6-AviTag-MBP-TEV vector was used to produce biotinylated MBP for control experiments. Proteins were coexpressed with BirA biotin ligase (PET21a-BirA, Addgene, no. 20857) in Escherichia coli BL21(DE3) cells. At isopropyl-β-D-thiogalactopyranoside (IPTG) induction (1 mM IPTG at 18°C overnight), 50 μM biotin was added to the media. Harvested cells were lysed in a buffer containing 50 mM tris (pH 7.5), 150 to 300 mM NaCl, 50 μM biotin, 2 mM β-mercaptoethanol, cOmplete EDTA-free protease inhibitor cocktail (Roche, Basel, Switzerland), 1% Triton X-100, and trace amount of deoxyribonuclease, ribonuclease, and lysozyme. Lysates were frozen at −20°C before further purification steps. Lysates were sonicated and centrifuged for clarification. Expressed proteins were captured on in-house prepacked Ni-IDA (Protino Ni-IDA Resin, Macherey-Nagel, Duren, Germany) columns and were washed with at least 10 column volumes of cold wash buffer [50 mM tris (pH 7.5), 150 mM NaCl, and 2 mM β-mercaptoethanol] before elution with 250 mM imidazole. The Ni elution was collected directly on a preequilibrated amylose column (amylose high flow resin, New England Biolabs, Ipswich, MA). Amylose column was washed with 5 column volumes of cold wash buffer before fractionated elution in a buffer containing 25 mM Hepes (pH 7.5), 150 mM NaCl, 1 mM TCEP, 10% glycerol, 5 mM maltose, and cOmplete EDTA-free protease inhibitor cocktail. The concentration of proteins was determined by their ultraviolet absorption at 280 nm before aliquots were snap-frozen in liquid nitrogen and stored at −80°C.
For saturating streptavidin resin with biotinylated peptides or biotin, 50 μl of streptavidin resin was mixed with biotin or peptide at 40 to 60 μM concentration in 6 to 6.5 resin volume for 60 min. To saturate streptavidin resin with biotinylated proteins, 50 μl of streptavidin resin (Streptavidin Sepharose High Performance, Cytiva) was mixed with biotinylated MBP or MBP-PDZ at 40 to 50 μM concentration in 20× resin volume for 60 min. After saturation, resins were washed a single time [10 resin volume, holdup buffer: 50 mM tris (pH 7.5), 300 mM NaCl, and 1 mM TCEP, 0.22-μm filtered] and were depleted with biotin (10 resin volume, 10 min, holdup buffer supplemented with 100 μM biotin). Last, resins were washed two times (10 resin volume, holdup buffer).
For single-point nHU experiments carried out at ~10 μM bait concentration, 50 μl of saturated streptavidin resin was mixed with 200 μl of cell lysate (2 mg/ml). Titration experiments were carried out by mixing control and bait-saturated resin and keeping the total resin volume constant; e.g., ~5 μM bait concentration can be achieved by mixing 25 μl of bait-saturated streptavidin resin with 25 μl of control resin and 200 μl of cell lysate (2 mg/ml). Control and bait-saturated resins were prepared in larger amounts, and a serial dilution was prepared with these presaturated resins to achieve different resin ratios.
Unless specified elswhere, the nHU mixture was incubated at 4°C for 2 hours. After the incubation ended, the resin was separated from the supernatant by a brief centrifugation (15 s, 2000 g). Then, half of the supernatant was removed by pipetting without any delay to avoid any resin contamination; e.g., 100 μl of supernatant is collected if 200 μl of cell lysate was used as analyte. Alternatively, the supernatant can be centrifuged an additional time to clarify it further, removing any possible resin contamination. In principle, the separation of the supernatant should be as fast as possible since any delay can perturb the equilibrium. […] Alternatively, the resin can be separated from the supernatant using filter plates (e.g., various products of Millipore, Burlington, MA) or spin columns (e.g., Pierce spin cups—cellulose acetate filter from Thermo Fisher Scientific, Waltham, MA) to achieve faster separation. […]

First: B1
Second: B2
The BI_HU of the first is higher: 0.3458 for the first, 0.3284 for the second.

Molecule B3 has a BI_HU of 0.2772.

B1 and B2 are within 0.2 log units of each other in “FC_HU (log2 fold change)” value: -0.6123 for the first, -0.5743 for the second.

B3 was tested, and the “FC_HU (log2 fold change)” value was -0.4683.

Going from B1 to B2, the Ratio_HU rises from 0.6542 to 0.6716.

With B3 the Ratio_HU was 0.7228.

Same assay, conditions: apparent, Eq. 2; Jurkat, series 1; significant binders (1 σ, P < 0.05)

Compared with B1, B2 is lower in pKapp_significant_binders_HU: 4.725 for the first, 4.691 for the second.

In the case of B3, the pKapp_significant_binders_HU is reported as 4.5849.

What follows are molecules tested on SNX27_PDZ (assay: AP-MS control pull-down on leftover resin, SNX27_PDZ bait, total Jurkat extracts). Settings: Jurkat, series 1; leftover resin; n = 6.
Type: binding, human
Procedure: Leftover beads from nHU-MS experiments were washed three times immediately after the separation of the supernatant [10 resin volume in buffer containing 50 mM tris (pH 8.5), 150 mM NaCl, 1% Triton X-100, 10× cOmplete EDTA-free protease inhibitor cocktail, 2 mM EDTA, and 1 mM TCEP]. Then, the beads were washed two times [10 resin volume buffer containing 50 mM tris (pH 8.5), 150 mM NaCl, and 1 mM TCEP]. Last, captured protein was eluted from the resin in two steps, and the eluted fractions were pooled. For each elution, the beads were incubated for 30 min with three resin volume buffer containing 20 mM tris (pH 8.5), 100 mM NaCl, 500 μM TCEP, and 8 M urea. Between each step, the beads were separated by mild centrifugation, and the supernatant was removed by gentle pipetting.
The nHU samples were precipitated with trichloroacetic acid (TCA) 20% overnight at 4°C and centrifuged at 14,000 rpm for 10 min at 4°C. The protein pellets were washed twice with 1 ml of cold acetone and air-dried. The protein extracts were solubilized in 8 M urea, reduced with 5 mM TCEP for 30 min, and alkylated with 10 mM iodoacetamide for 30 min in the dark. Double digestion was performed at 37°C with 500 ng of endoproteinase Lys-C (Wako, Richmond, USA) for 4 hours, followed by fourfold dilution and an overnight digestion with 500 ng of trypsin (Promega, Charbonnieres les Bains, France). Peptide mixtures were then desalted on a C18 spin-column and dried on a speed vacuum.
Samples were analyzed using an Ultimate 3000 nano-RSLC coupled in line via a nano-electrospray ionization source, with an LTQ-Orbitrap ELITE mass spectrometer (Thermo Fisher Scientific, San Jose, CA) or with the Orbitrap Exploris 480 mass spectrometer (Thermo Fisher Scientific, Bremen, Germany) equipped with a high field asymmetric ion mobility spectrometry (FAIMS) module. Peptide mixtures were injected in 0.1% trifluoroacetic acid on a C18 Acclaim PepMap100 trap column [75 μm inner diameter (ID) × 2 cm, 3 μm, 100 Å, Thermo Fisher Scientific] for 3 min at 5 μl/min with 2% acetonitrile (ACN) and 0.1% formic acid (FA) in H2O and then separated on a C18 Acclaim PepMap100 nano-column (75 μm ID × 50 cm, 2.6 μm, 150 Å, Thermo Fisher Scientific) at 300 nl/min and 40°C with a 90-min linear gradient from 5 to 30% buffer B (A: 0.1% FA in H2O/B: 80% ACN, 0.1% FA in H2O) and regeneration at 5% B. Spray voltage was set to 2.1 kV and heated capillary temperature was set to 280°C.
For the Orbitrap Elite, the mass spectrometer was operated in positive ionization mode in data-dependent mode with survey scans from mass/charge ratio (m/z) 350 to 1500 acquired in the Orbitrap at a resolution of 120,000 at m/z 400. The 20 most intense peaks from survey scans were selected for further fragmentation in the linear ion trap with an isolation window of 2.0 Da and were fragmented by collision-induced dissociation (CID) with a normalized collision energy of 35% (TOP 20 CID method). Unassigned and single-charged states were excluded from fragmentation. The ion target value for the survey scans (in the Orbitrap) and the MS2 mode (in the linear ion trap) were set to 1E6 and 5E3, respectively, and the maximum injection time was set to 100 ms for both scan modes. Dynamic exclusion was set to 20 s after one repeat count with mass width at ±10 parts per million (ppm).
Proteins were identified by database search using SequestHT (Thermo Fisher Scientific) with Proteome Discoverer 2.4 software (PD2.4, Thermo Fisher Scientific) on the human FASTA database downloaded from UniProt (reviewed, release 2021_06_03, 20380 entries, https://uniprot.org/, complemented with sequences of likely contaminants, such as MBP, streptavidin, or trypsin). Precursor and fragment mass tolerances were set at 7 ppm and 0.6 Da, respectively, and up to two missed cleavages were allowed. […]

Going from B1 to B2, the “FC_AP (log2 fold change)” value rises from 0.5179 to 5.099.

With B3 the “FC_AP (log2 fold change)” value was 7.799.

Compared with B1, B2 is higher in Ratio_AP: 1.432 for the first, 34.2811 for the second.

B3 gave a Ratio_AP of 222.732.
